# In publication PMC7017353, “Delineating the Molecular Basis of the Calmodulin–bMunc13-2 Interaction by Cross-Linking/Mass Spectrometry—Evidence for a Novel CaM Binding Motif in bMunc13-2” (Cells, 2020):
# Where no end group is shown, it is not given here. [ ]: non-standard residue; d: D form. Bpa = N[C@@H](Cc1ccc(C(=O)c2ccccc2)cc1)C(=O)O
# Target: recombinant CaM (UniProt P0DP23 1-149)
# Experiment: cross-linking; photoaffinity labelling (PAL)-based competition: CaM (5 µM) with segment-C-Bpa or segment-CS-Bpa (5 µM), competitor peptides 0–250 µM; 50 mM HEPES pH 7.2, 150 mM KCl, 5 mM DTT, 2 h RT, 200 µM Ca2+ or 2 mM EGTA; UV; SDS-PAGE and MALDI-TOF-MS
# Conditions: both partners purified
binder,measurement,value
CINN[Bpa]KNVLREKRLRQKKLLQELV (source: synthetic peptide) [Segment-CS-Bpa],binding result,binds
